What was measured:
[1] = tested on: surface of black nightshade leaves; assay: VHH binding to non-fixed leaf discs, black nightshade; conditions: 5 μg/ml, detection with anti-histidine Alexa-488
Protocol: VHH binding to non-fixed leaf discs of potato (variety Desiree), black nightshade, grass, wheat or azalea was investigated. For comparison, binding of CBM3a to non-fixed leaf discs of potato (variety Desiree) was analyzed in parallel. Leaf discs were prepared by punching a fresh potato leaf with a 5 mm belt hole puncher tool. Leaf discs were put immediately in wells of a 96-well plate containing 200 μl per well 5% MPBS or PBS, and incubated for 30 minutes. Leaf discs were transferred to solutions containing 5 μg/ml VHH antibody fragment, respectively, 5 μg/ml CBM3a in 2% MPBS or PBS and incubated for 60-90 minutes. Unbound VHH or CBM3a proteins were removed by washing three times with 2% MPBS or PBS. Bound VHH or CBM3a proteins were detected with incubation with monoclonal mouse anti-histidine antibodies directly conjugated with Alexa-488 fluorescent dye (Abd Serotec) in 1% MPBS for 1 hour. Unbound antibodies were removed by washing three times with PBS. Leaf discs were put on glass slides, covered with cover slips, and analyzed by microscopy or on a macrozoom microscope system (Nikon) or a SP5 confocal microscope system (Leica).

[2] = tested on: intact living potato pot plants; assay: VHH binding to intact living plants; parameters: species or system potato (variety Desiree); conditions: in PBS; 1 hour; FIG. 2: 5 μg/ml
Protocol: Binding of VHH to intact living plants was investigated on potato pot plants (variety Desiree). Compound leaves of intact living plants were submersed in solutions of hexahistidine-tagged VHH in PBS, or PBS alone for control conditions, leaving the compound leaves attached to the plants. VHH were allowed to bind for 1 hour. Next, the compound leaves still attached to the plants were washed five times in PBS in Erlenmeyer flasks. Different leaves and petiole sections were sampled. Bound VHH were detected by incubation with monoclonal mouse anti-histidine antibodies directly conjugated with Alexa-488 fluorescent dye (Abd Serotec) in PBS for 1 hour. Unbound anti-histidine antibodies were removed by washing five times with PBS. Whole leaves, leaf discs, or petiole sections were analyzed for bound VHH with microscopy.

[3] = ELISA-like assay, microcapsules with monovalent or bivalent VHH, unrelated antigen; format: binding; parameters: unit not given beside the values; conditions: Uvitex microcapsules
Excerpt: Bivalent VHH constructs were produced in bacteria by cloning two VHH sequences in tandem into the pASF22 vector, creating a fusion of two VHH with a 9 glycine-serine linker (GGGGSGGGS (SEQ ID NO:50)) in between the two VHH. pASF22 is an in-house produced pMES derivative. The tags that were used were C-terminal c-Myc (EQKLISEEDLN (SEQ ID NO:51)) and hexahistidine (HHHHHH (SEQ ID NO:52)). A triple alanine linker (AAA) was placed in between the C-terminal end of the VHH and the c-Myc tag and a glycine-alanine-alanine (GAA) linker was used in between the C-terminal end of the c-Myc tag and the hexahistidine tag. The complete sequence C-terminal of the bivalent VHH that was used: AAA-EQKLISEEDLN-GAA-HHHHHH (SEQ ID NO:53). Fresh overnight cultures were produced by starting from colony streaks and inoculation of 2×TY media supplemented with 2% glucose and 100 μg/ml ampicillin. The overnight cultures were used to inoculate fresh cultures 1:100 in 2×TY media with 0.1% glucose and 100 μg/ml ampicillin. After growing at 37° C. in a shaking incubator for 3 hours, IPTG was added to a 1 mM final concentration and recombinant bivalent VHH were produced during an additional incubation for 4 hours. Cells were spun down and resuspended in 1/50th of the original culture volume of PBS and incubated with head-over-head rotation at 4° C. for 30 minutes. Spheroplasts were spun down by centrifugation at 3,000 g and 4° C. for 20 minutes. Supernatants were transferred to fresh tubes and centrifuged again at 3,000 g and 4° C. for 20 minutes. The supernatant was collected and sodium chloride concentration was adjusted to 500 mM and imidazole concentration to 20 mM. Hexahistidine-tagged bivalent VHH were purified from the extracts using HisTrap FF Crude 5 ml IMAC columns (GE Lifesciences) and HiLoad 16/60 Superdex 75 prep grade gel filtration column (GE Lifesciences) on an AKTAxpress system (GE Lifesciences) following standard procedures.
Next, it was investigated if binding of microcapsules to surfaces could be improved by using targeting agents comprising multivalent VHH. A series of parallel couplings was performed with equal amounts of monovalent VHH, bivalent VHH, and unrelated VHH. Success of coupling of VHH and multivalent VHH were analyzed as described in Example 4. An ELISA-like assay was performed using high bind half area microplates (Greiner Bio-One) coated with 5 μg/well potato lectin. Control wells included blank wells or wells coated with unrelated antigens. Plates were washed three times with PBS with 0.05%-TWEEN®-20 and blocked with 5% skimmed milk in PBS for 1 to 2 hours. VHH-coupled Uvitex-containing microcapsules were diluted to appropriate densities in 1% skimmed milk in PBS with 0.05%-TWEEN®-20. Five-fold serial dilution series were prepared and allowed to bind to the surface to compare binding of microcapsules coupled with monovalent or bivalent VHH. Microcapsules were added to the antigen-coated or control wells and allowed to bind for 1 hour. Unbound microcapsules were removed by washing five times with PBS with 0.05%-TWEEN®-20. The bottoms of ELISA plate wells were analyzed for bound microcapsules on a macrozoom microscope system (Nikon). Microcapsules were counted using Volocity image analysis software (Perkin Elmer). A DAPI filter was used to visualize Uvitex microcapsules. […] The surface area of microcapsules with coupled bivalent VHH was 15-fold above the surface area of blank microcapsules applied at this microcapsule density while the surface area of microcapsules with monovalent VHH was only six-fold above the surface area of blank microcapsules applied at this microcapsule density. This difference could be explained by an increase in binding strength due to additional avidity of the bivalent VHH compared to monovalent VHH, it could also be that the use of bivalent VHH increases flexibility and spacer length of the coupled targeting agents on microcapsules, or a combination of both.

azalea leaf discs = assay: Leaf disc binding assay with VHH-coupled microcapsules, azalea; conditions: Uvitex microcapsules
Protocol: A leaf disc binding assay was used to evaluate the interaction of VHH-coupled microcapsules with potato, grass and azalea leaves. ø 8 mm leaf discs were sampled from the leaves of potato pot plants (variety Desiree), from the leaves of greenhouse-grown Lollium perenne and from the leaves of azalea pot plants. Leaf discs were washed three times with PBS. Microcapsules containing lambda cyhalothrin or Uvitex were diluted to appropriate densities in 1% skimmed milk in PBS with 0.05%-TWEEN®-20. Microcapsules were added to the leaf discs and settling of microcapsules and binding of targeting agents allowed for 1 hour. Unbound microcapsules were removed by washing three to five times with PBS with 0.05%-TWEEN®-20.
Leaf discs with Uvitex microcapsules were analyzed for bound microcapsules on a macrozoom microscope system (Nikon). Microcapsules were counted using Volocity image analysis software (Perkin Elmer). A DAPI filter was used to visualize Uvitex microcapsules. Controls for Uvitex microcapsules included blank microcapsules to which no VHH were coupled and microcapsules to which unrelated VHH were coupled.

Molecule	binding to native black nightshade leaf surface (fluorescence microscopy) [1]	binding to native black nightshade leaf surface (fluorescence microscopy) ([1]; listed as 3E6)	binding to intact living plant (leaves attached to potato pot plant submerged in VHH solution) [2]	Surface area of bound microcapsules ([3]; no coating (second series, with unrelated antigen rows), surface coverage 100%)	Surface area of bound microcapsules ([3]; unrelated antigen, surface coverage 4%)	Surface area of bound microcapsules ([3]; unrelated antigen, surface coverage 20%)	Surface area of bound microcapsules ([3]; unrelated antigen, surface coverage 100%)	specific binding of microcapsules to azalea leaf discs (azalea leaf discs)
VHH 3E6: VHH binding gum arabic, potato lectin and leaf surface; SEQ ID NO:7 by order of the list (protein, listed as Lama glama, 3E6) VHH: QVQLQESGGGLVQPGGTLSLSCAASGFNVRWYGMGWFRQAPGKEREGVACISALQETTAYADSVKGRFTLSRDNPKNTLSLQMNNLQPEDTGVYYCATTDCDDSSRMTYTSYLGQGTQVTVSS	binding leaf surface, glandular trichomes, and leaf hairs	bind specifically	binding leaf surface, stomata, glandular trichomes, and leaf hairs	–	–	–	–	–
Microcapsules containing uvitex OB VHH 3E6: polyurea microcapsules containing the fluorescent tracer Uvitex OB, coupled with (monovalent) VHH 3E6 (conjugate, left off: small tags and cut ends, polyurea microcapsules containing the fluorescent tracer Uvitex OB, coupled with (monovalent) VHH 3E6) VHH: QVQLQESGGGLVQPGGTLSLSCAASGFNVRWYGMGWFRQAPGKEREGVACISALQETTAYADSVKGRFTLSRDNPKNTLSLQMNNLQPEDTGVYYCATTDCDDSSRMTYTSYLGQGTQVTVSS	–	–	–	72.036	5.011	27.742	69.503	no specific binding

— patent US8598081B2, “Specific delivery of agrochemicals” (priority 2010, dated 2013)
